In patent KR20140138533A (dated 2014):

Molecular target: T1, 재조합 인슐린 유사 성장인자-1 수용체 (IGF-1R, R&D system, 391-GR), extracellular domain Met1-Asn932 (human, UniProt P08069 31-932)
T1 construct: range 1-932; Bought recombinant protein; also called 재조합 IGF-1R; hIGF-1R
Experiment: SPR (BiaCore T200), MKJP2 captured on anti-human IgG Fc CM5 chip, IGF-1R injected at 0.78-12.5 nM

T1 sequence (P08069 31-932 limits assumed): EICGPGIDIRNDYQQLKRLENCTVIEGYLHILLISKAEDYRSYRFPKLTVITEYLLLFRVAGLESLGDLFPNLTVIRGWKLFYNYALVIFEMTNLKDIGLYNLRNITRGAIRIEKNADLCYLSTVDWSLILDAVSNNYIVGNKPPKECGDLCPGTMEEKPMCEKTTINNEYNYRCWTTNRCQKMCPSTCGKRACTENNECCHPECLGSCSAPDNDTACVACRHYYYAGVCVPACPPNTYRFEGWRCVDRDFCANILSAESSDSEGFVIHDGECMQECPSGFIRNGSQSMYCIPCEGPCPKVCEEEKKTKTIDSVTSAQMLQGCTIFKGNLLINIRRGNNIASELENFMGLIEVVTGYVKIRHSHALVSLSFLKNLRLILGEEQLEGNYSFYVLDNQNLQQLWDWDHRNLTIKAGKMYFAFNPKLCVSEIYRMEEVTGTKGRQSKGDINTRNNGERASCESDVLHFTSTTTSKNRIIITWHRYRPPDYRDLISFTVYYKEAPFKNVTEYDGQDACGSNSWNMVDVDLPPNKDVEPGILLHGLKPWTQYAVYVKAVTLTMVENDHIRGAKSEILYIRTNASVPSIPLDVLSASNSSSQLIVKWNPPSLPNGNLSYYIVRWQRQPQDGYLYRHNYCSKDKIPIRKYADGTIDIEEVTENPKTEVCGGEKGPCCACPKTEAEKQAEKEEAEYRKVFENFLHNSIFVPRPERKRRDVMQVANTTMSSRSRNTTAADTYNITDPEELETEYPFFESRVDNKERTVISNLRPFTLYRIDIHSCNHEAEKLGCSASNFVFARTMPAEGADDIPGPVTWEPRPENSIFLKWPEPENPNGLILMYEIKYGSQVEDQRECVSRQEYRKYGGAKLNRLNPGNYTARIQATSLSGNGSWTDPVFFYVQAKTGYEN

Kd: 0.173 nM
B1: 인간 단일클론항체 MKJP2 (전체 IgG) (antibody, V domains shown)
VH: EVQLLESGGGLAQPGGSLRLSCAASGFTFSGYAMSWVRQAPGKGLEWVSAISSDGGSTYYADSVKGRFTISRDNSKNTLYLQMNSLRAEDTAVYYCARDPWFSRWTAFDYWGQGTLVTVSS
VL: QSVLTQPPSASGTPGQRVTISCSGSSSNIGNNAVNWYQQLPGTAPKLLIYSNSKRPSGVPDRFSGSKSGTSASLAISGLRSEDEADYYCGTWDYSLSGYVFGGGTKLTVLG
notes: Variable regions were cloned into the vectors E-A12H-ID (heavy) and pEA12L-ID (light); also called MKJP2 항체; 항 IGF-1R 항체 MKJP2
